The values below come from paper PMC8794802.

Numbering of substitutions follows the chain as printed.

One data set deals with T1, Pus7 D256A/F307A (Saccharomyces cerevisiae, UniProt Q08647 1-676, D256A;F307A).
T1 sequence: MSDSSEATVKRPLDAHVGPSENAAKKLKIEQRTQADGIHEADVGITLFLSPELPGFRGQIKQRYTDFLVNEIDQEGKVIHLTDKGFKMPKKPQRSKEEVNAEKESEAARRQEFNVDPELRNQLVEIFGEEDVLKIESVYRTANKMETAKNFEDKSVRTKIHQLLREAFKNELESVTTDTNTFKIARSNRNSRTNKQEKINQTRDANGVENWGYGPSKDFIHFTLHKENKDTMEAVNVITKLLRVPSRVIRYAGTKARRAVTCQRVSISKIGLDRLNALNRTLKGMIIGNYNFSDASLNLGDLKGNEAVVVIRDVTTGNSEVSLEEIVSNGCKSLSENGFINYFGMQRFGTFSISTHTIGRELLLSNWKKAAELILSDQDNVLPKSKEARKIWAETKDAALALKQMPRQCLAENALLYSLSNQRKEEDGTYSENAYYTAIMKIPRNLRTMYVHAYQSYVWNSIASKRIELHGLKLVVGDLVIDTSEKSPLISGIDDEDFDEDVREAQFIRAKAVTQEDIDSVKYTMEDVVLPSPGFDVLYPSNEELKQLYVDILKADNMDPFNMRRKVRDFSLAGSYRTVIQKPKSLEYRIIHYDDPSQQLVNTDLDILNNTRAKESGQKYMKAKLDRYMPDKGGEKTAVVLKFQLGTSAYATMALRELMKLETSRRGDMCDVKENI
Nature of the data set: EMSA. (In general: A gel shift assay detects complexes by their altered migration in electrophoresis.)

A further data set addresses T2, Pus1 (Saccharomyces cerevisiae, UniProt Q12211 1-544).
T2 sequence: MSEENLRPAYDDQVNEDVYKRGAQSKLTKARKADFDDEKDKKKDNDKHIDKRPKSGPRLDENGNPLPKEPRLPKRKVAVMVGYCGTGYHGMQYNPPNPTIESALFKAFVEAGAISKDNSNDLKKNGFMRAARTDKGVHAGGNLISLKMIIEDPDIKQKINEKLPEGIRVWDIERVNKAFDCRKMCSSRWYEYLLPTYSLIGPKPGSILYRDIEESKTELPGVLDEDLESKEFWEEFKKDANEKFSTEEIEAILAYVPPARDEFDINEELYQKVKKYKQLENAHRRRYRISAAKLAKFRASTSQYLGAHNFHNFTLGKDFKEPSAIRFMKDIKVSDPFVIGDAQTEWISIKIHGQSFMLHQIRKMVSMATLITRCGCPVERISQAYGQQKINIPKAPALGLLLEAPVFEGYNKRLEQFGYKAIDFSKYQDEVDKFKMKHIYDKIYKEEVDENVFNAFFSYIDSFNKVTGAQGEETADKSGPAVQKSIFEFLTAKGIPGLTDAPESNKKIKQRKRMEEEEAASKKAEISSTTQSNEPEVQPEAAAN
Nature of the data set: EMSA.

The target of data set [1] is T3, Pus7 D256A (Saccharomyces cerevisiae, UniProt Q08647 1-676, D256A).
T3 sequence: T1 sequence with A307F
Nature of the data set: EMSA.

In data set [2] the target is T3, Pus7 D256A. In words: stopped-flow fluorescence.

B1: CDC8 (cdc8-FL, 61 nt) (ssRNA)
RNA: GUCAAUCACGAUUGUAGACGUUACUAAUAAGGGCAUUCAGGAAGUUGAAGCGCUUAUUUGG
In the case of B1, the Kd (usually the equilibrium constant for the complex coming apart) is 340 ± 170 nM with Pus7 D256A/F307A, 60 ± 15 nM with Pus7 D256A [1] and around 85 nM with Pus7 D256A [2]. Moreover, in the data set with Pus1, the binding result is listed as “binds”.
